Reference: patent publication US20260167699A1 (Chugai, published 2026)
Residue numbers refer to the chain shown, from its start.

T1: FcγRIIa(R) extracellular domain with C-terminal His tag (human, UniProt P12318 34-217)
T1 construct: extracellular domain; R131 allotype; also called 2aR; CD32
T1 sequence: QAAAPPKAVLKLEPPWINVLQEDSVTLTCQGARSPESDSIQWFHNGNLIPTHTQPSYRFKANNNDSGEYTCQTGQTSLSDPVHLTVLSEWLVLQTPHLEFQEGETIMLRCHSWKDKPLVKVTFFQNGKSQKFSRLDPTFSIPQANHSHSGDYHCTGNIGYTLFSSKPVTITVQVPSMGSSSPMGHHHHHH

T2: FcγRIIa(H) extracellular domain with C-terminal His tag (human, UniProt P12318 34-217)
T2 construct: extracellular domain; H131 allotype; also called 2aH; CD32
T2 sequence: T1 sequence with R134H

T3: FcγRIIb extracellular domain with C-terminal His tag (human, UniProt P31994 43-217)
T3 construct: extracellular domain; also called 2b; CD32
T3 sequence: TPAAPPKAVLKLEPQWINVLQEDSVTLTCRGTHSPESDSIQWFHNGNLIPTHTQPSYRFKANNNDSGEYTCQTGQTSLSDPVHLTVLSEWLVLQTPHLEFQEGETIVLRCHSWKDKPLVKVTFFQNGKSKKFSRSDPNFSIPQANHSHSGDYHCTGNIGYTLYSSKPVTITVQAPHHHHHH

T4: FcγRIIa(R) (human, UniProt P12318 34-217)
T4 construct: extracellular domain; also called FcγRIIa R type; 2aR
T4 sequence: T1 sequence

T5: FcγRIIa(H) (human, UniProt P12318 34-217)
T5 construct: extracellular domain; also called FcγRIIa H type; 2aH
T5 sequence: T1 sequence with R134H

T6: FcγRIIb (human, UniProt P31994 43-217)
T6 construct: extracellular domain; also called 2b
T6 sequence: T3 sequence

B1: GpH7-A5/GpH7-B3 variant S337_01G/GpL16-k0 (antibody, human IgG1, kappa)
heavy 1: not shown
heavy 2: not shown
light: DIVMTQSPLSLPVTPGEPASISCQASESLVHSNRNTYLHWYLQKPGQSPQLLIYKVSNRFSGVPDRFSGSGSGTDFTLKISRVEAEDVGVYYCSQNTHVPPTFGQGTKVEIERTVAAPSVFIFPPSDEQLKSGTASVVCLLNNFYPREAKVQWKVDNALQSGNSQESVTEQDSKDSTYSLSSTLTLSKADYEKHKVYACEVTHQGLSSPVTKSFNRGEC
notes: heterodimerized IgG1 (He Ab), mutation in one H chain only; also called He Ab
B2: GpH7-A5/GpH7-B3 variant T335_03V/GpL16-k0 (antibody, human IgG1, kappa)
heavy 1: not shown
heavy 2: not shown
light: B1 light
notes: as for B1
B3: GpH7-A5/GpH7-B3 variant T335_10E/GpL16-k0 (antibody, human IgG1, kappa)
heavy 1: not shown
heavy 2: not shown
light: B1 light
notes: as for B1
B4: GpH7-A5/GpH7-B3 variant S337_02A/GpL16-k0 (antibody, human IgG1, kappa)
heavy 1: not shown
heavy 2: not shown
light: B1 light
notes: as for B1
B5: GpH7-A5/GpH7-B3 variant S337_04F/GpL16-k0 (antibody, human IgG1, kappa)
heavy 1: not shown
heavy 2: not shown
light: B1 light
notes: as for B1
B6: GpH7-A5/GpH7-B3 variant S337_03V/GpL16-k0 (antibody, human IgG1, kappa)
heavy 1: not shown
heavy 2: not shown
light: B1 light
notes: as for B1
B7: GpH7-A5/GpH7-B3 variant T335_01G/GpL16-k0 (antibody, human IgG1, kappa)
heavy 1: not shown
heavy 2: not shown
light: B1 light
notes: as for B1
B8: GpH7-A5/GpH7-B3 variant T335_04F/GpL16-k0 (antibody, human IgG1, kappa)
heavy 1: not shown
heavy 2: not shown
light: B1 light
notes: as for B1
B9: GpH7-A5/GpH7-B3 variant T335_18N/GpL16-k0 (antibody, human IgG1, kappa)
heavy 1: not shown
heavy 2: not shown
light: B1 light
notes: as for B1
B10: GpH7-A5/GpH7-B3 variant T335_06M/GpL16-k0 (antibody, human IgG1, kappa)
heavy 1: not shown
heavy 2: not shown
light: B1 light
notes: as for B1
B11: GpH7-A5/GpH7-B3 variant T335_15Y/GpL16-k0 (antibody, human IgG1, kappa)
heavy 1: not shown
heavy 2: not shown
light: B1 light
notes: as for B1
B12: GpH7-A5/GpH7-B3 variant T335_13S/GpL16-k0 (antibody, human IgG1, kappa)
heavy 1: not shown
heavy 2: not shown
light: B1 light
notes: as for B1
B13: GpH7-A5/GpH7-B3 variant T335_09D/GpL16-k0 (antibody, human IgG1, kappa)
heavy 1: not shown
heavy 2: not shown
light: B1 light
notes: as for B1
B14: GpH7-A5/GpH7-B3 variant S337_18N/GpL16-k0 (antibody, human IgG1, kappa)
heavy 1: not shown
heavy 2: not shown
light: B1 light
notes: as for B1
B15: GpH7-A5/GpH7-B3 variant T335_07I/GpL16-k0 (antibody, human IgG1, kappa)
heavy 1: not shown
heavy 2: not shown
light: B1 light
notes: as for B1
B16: GpH7-A5/GpH7-B3 variant T335_16H/GpL16-k0 (antibody, human IgG1, kappa)
heavy 1: not shown
heavy 2: not shown
light: B1 light
notes: as for B1
B17: GpH7-A5/GpH7-B3 variant T335_12R/GpL16-k0 (antibody, human IgG1, kappa)
heavy 1: not shown
heavy 2: not shown
light: B1 light
notes: as for B1
B18: GpH7-A5/GpH7-B3 variant S337_12R/GpL16-k0 (antibody, human IgG1, kappa)
heavy 1: not shown
heavy 2: not shown
light: B1 light
notes: as for B1
B19: GpH7-A5/GpH7-B3 variant T335_20W/GpL16-k0 (antibody, human IgG1, kappa)
heavy 1: not shown
heavy 2: not shown
light: B1 light
notes: as for B1
B20: GpH7-A5/GpH7-B3 variant T335_11K/GpL16-k0 (antibody, human IgG1, kappa)
heavy 1: not shown
heavy 2: not shown
light: B1 light
notes: as for B1
B21: GpH7-A5/GpH7-B3 variant T335_19Q/GpL16-k0 (antibody, human IgG1, kappa)
heavy 1: not shown
heavy 2: not shown
light: B1 light
notes: as for B1
B22: GpH7-A5/GpH7-B3 variant T335_08L/GpL16-k0 (antibody, human IgG1, kappa)
heavy 1: not shown
heavy 2: not shown
light: B1 light
notes: as for B1
B23: GpH7-A5/GpH7-B3 variant T335_02A/GpL16-k0 (antibody, human IgG1, kappa)
heavy 1: not shown
heavy 2: not shown
light: B1 light
notes: as for B1
B24: GpH7-A5/GpH7-B3 variant S337_06M/GpL16-k0 (antibody, human IgG1, kappa)
heavy 1: not shown
heavy 2: not shown
light: B1 light
notes: as for B1
B25: GpH7-A5/GpH7-B3 variant S337_10E/GpL16-k0 (antibody, human IgG1, kappa)
heavy 1: not shown
heavy 2: not shown
light: B1 light
notes: as for B1
B26: GpH7-A5/GpH7-B3 variant S337_09D/GpL16-k0 (antibody, human IgG1, kappa)
heavy 1: not shown
heavy 2: not shown
light: B1 light
notes: as for B1
B27: GpH7-A5/GpH7-B3 variant T335_05P/GpL16-k0 (antibody, human IgG1, kappa)
heavy 1: not shown
heavy 2: not shown
light: B1 light
notes: as for B1
B28: GpH7-A5/GpH7-B3 variant H268_05P/GpL16-k0 (antibody, human IgG1, kappa)
heavy 1: not shown
heavy 2: not shown
light: B1 light
notes: heterodimerized IgG1, one H chain mutated; also called He Ab

The binders below were run against T7, FcγRIa extracellular domain with C-terminal His tag (human, UniProt P12314 16-292) (assay: SPR; % of GpH7-A5/GpH7-B3/GpL16-k0).
T7 construct: extracellular domain; also called 1a; CD64
T7 sequence (P12314 other isoform, or with tags, fused parts or gaps): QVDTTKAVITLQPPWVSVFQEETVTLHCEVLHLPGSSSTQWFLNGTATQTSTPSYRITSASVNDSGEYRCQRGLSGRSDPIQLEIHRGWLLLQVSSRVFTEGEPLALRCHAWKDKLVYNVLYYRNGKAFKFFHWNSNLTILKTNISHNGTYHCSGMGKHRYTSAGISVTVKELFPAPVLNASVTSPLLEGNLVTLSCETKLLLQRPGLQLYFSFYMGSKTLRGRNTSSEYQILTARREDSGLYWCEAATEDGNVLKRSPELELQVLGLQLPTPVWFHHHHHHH

| He/Con 1a | Binder |
| --- | --- |
| 103% | B1 |
| 108% | B2 |
| 112% | B3 |
| 102% | B4 |
| 103% | B5 |
| 103% | B6 |
| 108% | B7 |
| 108% | B8 |
| 109% | B9 |
| 110% | B10 |
| 111% | B11 |
| 108% | B12 |
| 111% | B13 |
| 102% | B14 |
| 113% | B15 |
| 109% | B16 |
| 116% | B17 |
| 103% | B18 |
| 110% | B19 |
| 114% | B20 |
| 108% | B21 |
| 118% | B22 |
| 107% | B23 |
| 104% | B24 |
| 103% | B25 |
| 102% | B26 |
| 110% | B27 |

The binders below were run against T1, FcγRIIa(R) extracellular domain with … (assay: SPR; % of GpH7-A5/GpH7-B3/GpL16-k0).

| He/Con 2aR | Binder |
| --- | --- |
| 101% | B1 |
| 112% | B2 |
| 117% | B3 |
| 107% | B4 |
| 106% | B5 |
| 108% | B6 |
| 110% | B7 |
| 113% | B8 |
| 112% | B9 |
| 110% | B10 |
| 117% | B11 |
| 116% | B12 |
| 116% | B13 |
| 108% | B14 |
| 115% | B15 |
| 114% | B16 |
| 106% | B17 |
| 109% | B18 |
| 115% | B19 |
| 105% | B20 |
| 112% | B21 |
| 114% | B22 |
| 108% | B23 |
| 107% | B24 |
| 114% | B25 |
| 117% | B26 |
| 109% | B27 |

Each binder was assayed against T2, FcγRIIa(H) extracellular domain with … (assay: SPR; % of GpH7-A5/GpH7-B3/GpL16-k0).

| He/Con 2aH | Binder |
| --- | --- |
| 98.7% | B1 |
| 107% | B2 |
| 112% | B3 |
| 103% | B4 |
| 105% | B5 |
| 104% | B6 |
| 107% | B7 |
| 107% | B8 |
| 107% | B9 |
| 106% | B10 |
| 110% | B11 |
| 110% | B12 |
| 111% | B13 |
| 106% | B14 |
| 112% | B15 |
| 109% | B16 |
| 103% | B17 |
| 105% | B18 |
| 109% | B19 |
| 103% | B20 |
| 107% | B21 |
| 109% | B22 |
| 104% | B23 |
| 104% | B24 |
| 109% | B25 |
| 114% | B26 |
| 112% | B27 |

Each binder was assayed against T3, FcγRIIb extracellular domain with … (assay: SPR; % of GpH7-A5/GpH7-B3/GpL16-k0).

| He/Con 2b | Binder |
| --- | --- |
| 100% | B1 |
| 109% | B2 |
| 118% | B3 |
| 106% | B4 |
| 107% | B5 |
| 108% | B6 |
| 106% | B7 |
| 112% | B8 |
| 111% | B9 |
| 109% | B10 |
| 118% | B11 |
| 111% | B12 |
| 118% | B13 |
| 113% | B14 |
| 116% | B15 |
| 112% | B16 |
| 100% | B17 |
| 108% | B18 |
| 114% | B19 |
| 99.4% | B20 |
| 109% | B21 |
| 114% | B22 |
| 103% | B23 |
| 106% | B24 |
| 117% | B25 |
| 124% | B26 |
| 109% | B27 |

What follows are binders tested against T8, FcγRIIIa extracellular domain with C-terminal His tag (human, UniProt P08637 17-208) (assay: SPR; % of GpH7-A5/GpH7-B3/GpL16-k0).
T8 construct: extracellular domain; also called 3a; CD16
T8 sequence (P08637 other isoform, or with tags, fused parts or gaps): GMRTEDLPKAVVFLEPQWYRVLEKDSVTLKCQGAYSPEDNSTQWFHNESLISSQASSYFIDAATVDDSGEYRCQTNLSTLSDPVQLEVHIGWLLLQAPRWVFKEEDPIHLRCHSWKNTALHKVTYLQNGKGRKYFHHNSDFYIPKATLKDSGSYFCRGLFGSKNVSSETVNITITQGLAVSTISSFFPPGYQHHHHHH

| He/Con 3a | Binder |
| --- | --- |
| 95.2% | B1 |
| 96.3% | B2 |
| 102% | B3 |
| 92.4% | B4 |
| 94.4% | B5 |
| 87.1% | B6 |
| 95.1% | B7 |
| 91.7% | B8 |
| 94.4% | B9 |
| 97% | B10 |
| 99.7% | B11 |
| 100% | B12 |
| 103% | B13 |
| 96.9% | B14 |
| 102% | B15 |
| 99.3% | B16 |
| 93.1% | B17 |
| 92.7% | B18 |
| 97.3% | B19 |
| 91.7% | B20 |
| 97.7% | B21 |
| 97.8% | B22 |
| 90.9% | B23 |
| 89.7% | B24 |
| 97.8% | B25 |
| 102% | B26 |
| 100% | B27 |

Each binder was assayed against T9, FcγRIa (human, UniProt P12314 16-292) (assay: SPR (Biacore), binding relative to GpH7-A5/GpH7-B3/GpL16-k0 x100;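 also: surface plasmon resonance at 25 °C, antibody captured on a sensor chip and soluble FcγR flowed over it in HBS-EP+ running buffer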).
T9 construct: extracellular domain; also called 1a
T9 sequence (P12314 other isoform, or with tags, fused parts or gaps): as the sequence (P12314 other isoform, or with tags, fused parts or gaps) above

| He/Con 1a | Binder |
| --- | --- |
| 106% | B28 |

Each binder was assayed against T4, FcγRIIa(R) in the same assay as above.

| He/Con 2aR | Binder |
| --- | --- |
| 114% | B28 |

Each binder was assayed against T5, FcγRIIa(H) in the same assay as above.

| He/Con 2aH | Binder |
| --- | --- |
| 82.7% | B28 |

The binders below were run against T6, FcγRIIb in the same assay as above.

| He/Con 2b | Binder |
| --- | --- |
| 122% | B28 |
